Experimental data as given in patent US9212226B2, “Amino acid sequences directed against CXCR4 and other GPCRs and compounds comprising the same” (Ablynx N.V., priority 2008, dated 2015).
“Also recorded” adds a separate entry of the source. Marks after values point to notes of the source that are not given here.

Columns and labels:
[1] = molecular target: CXCR4 (Homo sapiens, UniProt P61073); assay: CRE/β-galactosidase reporter gene assay in HEK293T cells expressing CXCR4; type: cell-based; settings: for Schild slope: log(CR-1) vs -log[Nanobody]
Chain of CXCR4 (P61073 whole entry): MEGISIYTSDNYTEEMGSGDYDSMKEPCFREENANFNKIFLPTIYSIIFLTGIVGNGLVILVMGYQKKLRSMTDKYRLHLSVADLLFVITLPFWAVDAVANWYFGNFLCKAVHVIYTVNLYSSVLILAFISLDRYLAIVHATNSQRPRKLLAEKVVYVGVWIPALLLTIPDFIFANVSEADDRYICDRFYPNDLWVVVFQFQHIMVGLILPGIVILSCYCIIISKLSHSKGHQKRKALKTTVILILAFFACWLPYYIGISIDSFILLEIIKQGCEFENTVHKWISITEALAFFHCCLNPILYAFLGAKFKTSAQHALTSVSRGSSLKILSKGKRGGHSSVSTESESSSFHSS
Method: (§1) HEK293T cells were maintained at 37° C. in a humidified 5% CO2, 95% air atmosphere in Dulbecco's modified Eagle's medium (DMEM) containing 2 mM L-glutamine, 50 IU/ml penicillin, 50 μg/ml streptomycin, and 10% (v/v) fetal calf serum. Jurkat cells were cultured in a humidified 5% CO2, 95% air atmosphere in a 1:1 mixture of Dulbecco's modified Eagle's medium (DMEM) and Ham's F12 medium containing 2 mM L-glutamine, 50 IU/ml penicillin, 50 μg/ml streptomycin, and 10% (v/v) fetal calf serum. […] [^125 I]-Labelling— Radiolabeling of Nanobodies with ^125I was performed using the Iodo-gen method (Pierce, Rockford, Ill.) according to the manufacturer's protocol. ^125I-labeled Nanobodies was separated from free iodine (>99%) using a Sephadex G-25 gel filtration column (Amersham Biosciences, Piscataway, N.J.). […] Competition Binding Assays— Membranes from HEK293T cells transiently expressing CXCR3 or CXCR4 were prepared 48 h after transfection as follows. Cells were washed and scraped from the cell culture dishes with ice-cold PBS containing 1 mm EDTA. The scraped cells were pelleted at 1500×g for 10 min at 4° C. The pellet was washed and then resuspended in ice-cold membrane buffer (15 mM Tris, pH 7.5, 1 mM EGTA, 0.3 mM EDTA, and 2 mM MgCl2). The cell suspension was homogenized by 10 strokes at 1200 rpm using a Teflon-glass homogenizer and rotor and further subjected to three freeze-thaw cycles using liquid nitrogen. Membranes were separated by centrifugation at 40,000 g for 25 min at 4° C. The membrane pellet was washed and resuspended in ice-cold Tris-sucrose buffer (20 mM Tris, pH 7.4, and 250 mM sucrose) and frozen in liquid nitrogen. The total protein was determined using a Bradford assay (Bio-Rad). Periplasmas (1:10) or ligands were pre-incubated with membranes in binding buffer (50 mM HEPES (pH 7.4), 1 mM CaCl2, 5 mM MgCl2, 100 mM NaCl, 0.5% bovine serum albumin) supplemented with 0.5% BSA for 1 h at 22° C. before the addition of [^125I]-CXCL12 (40 pM) or [^125I]-238D2 (3 nM) or [^125I]-238D4 (3 nM) for additional 2 h at 22° C. […] Membranes were then harvested over polyethylenimine (0.5%)-treated Whatman GF/C filter plates and washed three times with ice cold binding buffer containing 500 mM NaCl. Plates were counted by liquid scintillation. Inositol Phosphate Accumulation Assay— 24 hours post transfection with pcDNA3.1-CXCR4 and pcDNA1-HA-mG {alpha} qi5 (see Verzijl et al, 2008 supra), 250.000 cells were seeded into 24-wells plates and labelled overnight using inositol-free minimal essential medium supplemented with 1 μCi myo-[2-^3H]-inositol. The next day, the cells were washed once to remove not incorporated myo-[2-^3H]-inositol. […] In agonist experiments, the cells were directly stimulated with test compounds and LiCl (10 mM) in assay buffer for 2 h at 37° C. The stimulation was stopped by aspirating the stimulation medium and adding ice-cold 10 mM formic acid. The accumulated inositol phosphates were isolated by anion exchange chromatography and counted by liquid scintillation. CRE Reporter Gene Assay— HEK239T cells were transfected with pCRE/β-galactosidase (Chen W, Shields T S, Stork P J S, Cone R D (1995) Anal Biochem 226:349-354) and plasmids (pcDEF3 or pcDNA3.1) encoding the indicated receptors. 40,000 transfected cells per well were seeded into 96 well plates and grown in DMEM supplemented with 10% fetal calf serum. The medium was replaced 32 h after transfection by serum-free DMEM supplemented with 0.5% bovine serum albumin and ligands as indicated. Following 16 h of ligand incubation, the medium was removed, the cells were lysed in 100 μl of assay buffer (100 mM sodium phosphate buffer at pH 8.0, 4 mM 2-nitrophenol-β-D-pyranoside, 0.5% Triton X-100, 2 mM MgSO4, 0.1 mM MnCl2, and 40 mM β-mercaptoethanol) and incubated at room temperature. […]

[2] = molecular target: T1, CXCR3 (Homo sapiens, UniProt P49682); assay: CRE/β-galactosidase reporter gene selectivity screen, CXCR3; type: cell-based; settings: up to 2.5, forskolin 3 μM, agonist at 50-80% Emax
T1 sequence (P49682 1-368): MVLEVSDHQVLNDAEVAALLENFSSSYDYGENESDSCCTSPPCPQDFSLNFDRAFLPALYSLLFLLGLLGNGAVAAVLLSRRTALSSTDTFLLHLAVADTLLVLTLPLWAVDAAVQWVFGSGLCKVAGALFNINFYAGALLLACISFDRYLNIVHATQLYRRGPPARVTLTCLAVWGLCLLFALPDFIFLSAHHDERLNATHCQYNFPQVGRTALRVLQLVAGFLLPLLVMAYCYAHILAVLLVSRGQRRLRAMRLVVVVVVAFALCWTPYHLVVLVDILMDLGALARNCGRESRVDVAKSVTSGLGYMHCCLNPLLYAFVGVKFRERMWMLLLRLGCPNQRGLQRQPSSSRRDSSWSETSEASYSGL
Method: Data are shown as means±S.E.M. (n=2-3).
HEK293T cells were maintained at 37° C. in a humidified 5% CO2, 95% air atmosphere in Dulbecco's modified Eagle's medium (DMEM) containing 2 mM L-glutamine, 50 IU/ml penicillin, 50 μg/ml streptomycin, and 10% (v/v) fetal calf serum. Jurkat cells were cultured in a humidified 5% CO2, 95% air atmosphere in a 1:1 mixture of Dulbecco's modified Eagle's medium (DMEM) and Ham's F12 medium containing 2 mM L-glutamine, 50 IU/ml penicillin, 50 μg/ml streptomycin, and 10% (v/v) fetal calf serum. […] [^125 I]-Labelling— Radiolabeling of Nanobodies with ^125I was performed using the Iodo-gen method (Pierce, Rockford, Ill.) according to the manufacturer's protocol. ^125I-labeled Nanobodies was separated from free iodine (>99%) using a Sephadex G-25 gel filtration column (Amersham Biosciences, Piscataway, N.J.). […] Competition Binding Assays— Membranes from HEK293T cells transiently expressing CXCR3 or CXCR4 were prepared 48 h after transfection as follows. Cells were washed and scraped from the cell culture dishes with ice-cold PBS containing 1 mm EDTA. The scraped cells were pelleted at 1500×g for 10 min at 4° C. […] The total protein was determined using a Bradford assay (Bio-Rad). […] Plates were counted by liquid scintillation. […] The accumulated inositol phosphates were isolated by anion exchange chromatography and counted by liquid scintillation. […]

[3] = tested on: Jurkat cells endogenously expressing CXCR4; assay: Chemotaxis assay (ChemoTx plates) with Jurkat cells towards CXCL12; type: cell-based
Method: as §1

[4] = molecular target: CXCR4 (N119A) (Homo sapiens, UniProt P61073, N119A); assay: [125I]-CXCL12 competition binding on the constitutively active CXCR4 mutant N119A; settings: for binding to / displacement of [125I]-CXCL12 from CXCR4 (N119A): highest test concentration 2 μM, n=3
Chain of CXCR4 (N119A) (P61073 whole entry N119A): as the sequence (P61073 whole entry) above, with N119A counted along it
Method: HEK293T cells were maintained at 37° C. in a humidified 5% CO2, 95% air atmosphere in Dulbecco's modified Eagle's medium (DMEM) containing 2 mM L-glutamine, 50 IU/ml penicillin, 50 μg/ml streptomycin, and 10% (v/v) fetal calf serum. Jurkat cells were cultured in a humidified 5% CO2, 95% air atmosphere in a 1:1 mixture of Dulbecco's modified Eagle's medium (DMEM) and Ham's F12 medium containing 2 mM L-glutamine, 50 IU/ml penicillin, 50 μg/ml streptomycin, and 10% (v/v) fetal calf serum. […] [^125 I]-Labelling— Radiolabeling of Nanobodies with ^125I was performed using the Iodo-gen method (Pierce, Rockford, Ill.) according to the manufacturer's protocol. ^125I-labeled Nanobodies was separated from free iodine (>99%) using a Sephadex G-25 gel filtration column (Amersham Biosciences, Piscataway, N.J.). […] Competition Binding Assays— Membranes from HEK293T cells transiently expressing CXCR3 or CXCR4 were prepared 48 h after transfection as follows. Cells were washed and scraped from the cell culture dishes with ice-cold PBS containing 1 mm EDTA. The scraped cells were pelleted at 1500×g for 10 min at 4° C. The pellet was washed and then resuspended in ice-cold membrane buffer (15 mM Tris, pH 7.5, 1 mM EGTA, 0.3 mM EDTA, and 2 mM MgCl2). The cell suspension was homogenized by 10 strokes at 1200 rpm using a Teflon-glass homogenizer and rotor and further subjected to three freeze-thaw cycles using liquid nitrogen. Membranes were separated by centrifugation at 40,000 g for 25 min at 4° C. The membrane pellet was washed and resuspended in ice-cold Tris-sucrose buffer (20 mM Tris, pH 7.4, and 250 mM sucrose) and frozen in liquid nitrogen. The total protein was determined using a Bradford assay (Bio-Rad). Periplasmas (1:10) or ligands were pre-incubated with membranes in binding buffer (50 mM HEPES (pH 7.4), 1 mM CaCl2, 5 mM MgCl2, 100 mM NaCl, 0.5% bovine serum albumin) supplemented with 0.5% BSA for 1 h at 22° C. before the addition of [^125I]-CXCL12 (40 pM) or [^125I]-238D2 (3 nM) or [^125I]-238D4 (3 nM) for additional 2 h at 22° C. […] Membranes were then harvested over polyethylenimine (0.5%)-treated Whatman GF/C filter plates and washed three times with ice cold binding buffer containing 500 mM NaCl. Plates were counted by liquid scintillation. Inositol Phosphate Accumulation Assay— 24 hours post transfection with pcDNA3.1-CXCR4 and pcDNA1-HA-mG {alpha} qi5 (see Verzijl et al, 2008 supra), 250.000 cells were seeded into 24-wells plates and labelled overnight using inositol-free minimal essential medium supplemented with 1 μCi myo-[2-^3H]-inositol. The next day, the cells were washed once to remove not incorporated myo-[2-^3H]-inositol. […] The accumulated inositol phosphates were isolated by anion exchange chromatography and counted by liquid scintillation. […]

[5] = HEK293T-CXCR4-CREbgal/0.01-100 nM CXCL12, mean ± S.E.M.
[6] = Jurkat/0.3 nM CXCL12, monovalent Nanobodies, mean ± S.E.M.

B1: 238D4: Nanobody (VHH) raised against human CXCR4, SEQ ID NO: 239 (protein)
VHH: EVQLMESGGGLVQAGGSLRLSCAASGRTFNNYAMGWFRRAPGKEREFVAAITRSGVRSGVSAIYGDSVKDRFTISRDNAKNTLYLQMNSLKPEDTAVYTCAASAIGSGALRRFEYDYSGQGTQVTVSS
modifications: Nanobody, Nanobody constructs or fragments thereof
- agonist activity in the absence of CXCL12, CRE reporter [1]: No agonist activity; also recorded: did not show any agonist activity
- mode of antagonism of the CXCL12-induced activation of signal transduction [1]: competitive antagonism
- Imax (%), CRE activation [1, 5]: 90 ± 15^a %
- Schild slope [1]: 0.71±0.17
- effect on agonist-induced response at CXCR3 [2]: do not act as agonists or antagonists; also recorded: do not alter
- inhibition of migration of Jurkat cells towards CXCL12 ([3]; 300 pM CXCL12): concentration-dependently inhibited
- Imax (%), Chemotaxis [3, 6]: 101 ± 4%
- induction of migration of Jurkat cells (agonism) ([3]; test compound in lower compartment): unable to induce any significant migration
- binding affinity at CXCR4 (N119A) compared to the wild type receptor [4]: somewhat less
- binding to / displacement of [125I]-CXCL12 from CXCR4 (N119A) [4]: displace; also recorded: able to bind

B2: 238D2: Nanobody (VHH) raised against human CXCR4, SEQ ID NO: 238 (protein)
VHH: EVQLVESGGGLVQTGGSLRLSCAASGFTFSSYAMSWVRQAPGKGLEWVSGIKSSGDSTRYAGSVKGRFTISRDNAKNMLYLQMYSLKPEDTAVYYCAKSRVSRTGLYTYDNRGQGTQVTVSS
modifications: Nanobody, Nanobody constructs or fragments thereof
- agonist activity in the absence of CXCL12, CRE reporter [1]: No agonist activity; also recorded: did not show any agonist activity
- mode of antagonism of the CXCL12-induced activation of signal transduction [1]: competitive antagonism
- Imax (%), CRE activation [1, 5]: 104 ± 5^a %
- pKi or pIC50, CRE activation [1, 5]: 7.64 ± 0.16^b
- pKB ([1]; from Schild plot data, CXCL12-induced reporter gene response): 7.64±0.16
- Schild slope [1]: 0.91±0.20
- effect on agonist-induced response at CXCR3 [2]: do not act as agonists or antagonists; also recorded: do not alter
- Imax (%), Chemotaxis [3, 6]: 106 ± 2%
- pKi or pIC50, Chemotaxis [3, 6]: 8.33 ± 0.16
- binding affinity at CXCR4 (N119A) compared to the wild type receptor [4]: somewhat less
- binding to / displacement of [125I]-CXCL12 from CXCR4 (N119A) [4]: displace; also recorded: able to bind
